The test system of data set [1] is immortalized megakaryocyte line (SeV2-MKCL).
Experimental: Culturing was implemented by disseminating the cells at 2 mL/well in a 6-well plate at a seeding concentration of 1×10^5 cells/mL followed by static culturing in the medium indicated below.
After simultaneously adding SR-1 at the concentrations shown in FIG. 1 and culturing for 7 days, the number and function of the platelets were measured. The measurement method was as shown below.
The culture supernatant was gently suspended using a 1 mL Pipetman 7 days after culturing to terminate gene expression. 200 μL of the culture broth were dispensed into a 5 mL sample tube followed by staining with the antibodies indicated below.
Measurement was carried out using FACS Verse manufactured by Becton Dickinson and Company 30 minutes after the reaction. 400 μL of Tyrode's buffer Ca^+ were added immediately before measurement to bring to a total volume of 600 μL. This total volume of 600 μL was used for the FACS measurement sample.
The number of particles positive for CD42a and CD42b were considered to represent the number of platelets, and the ratio of the mean fluorescence intensities (MFI) of PAC-1 and CD62p in this platelet fraction before and after stimulation was calculated.
Data set [2] concerns immortalized megakaryocytes. The settings on record: for synergistic effect on number and function of platelets produced, ROCK inhibitor combined with SR-1: in combination with SR-1, compared with each alone (FIG. 9).
Experimental: Immortalized megakaryocytes obtained according to the method described in section 1 were washed twice with PBS(−) followed by removing the doxycycline to terminate overexpression, static culturing after disseminating the cells in a 6-well plate at 2 mL/well and a seeding density of 1×10^5 cells/mL, and then shake culturing in an E125 flask at 25 mL/flask and a seeding density of 1×10^5 cells/m L.
The medium was obtained by adding the following components to IMDM serving as the basal medium (concentrations indicate final concentrations).
Culturing was implemented under conditions of 37° C., 5% CO2 and 20% O2. The numbers of platelets and PAC-1 positive cells were measured using the same method as described in the above-mentioned section 2.
Data set [3] deals with immortalized megakaryocytes. Put plainly: shRNA knockdown: multinucleation and platelet production after terminating overexpression of cMYC, BMI1 and BCL-xL. Format: cell-based, human. As for the experimental part: Next, the production of platelets was measured after having terminated overexpression of cMYC, BMI1 and BCL-xL genes using the method described in the aforementioned section 1-5.

Data set [4] concerns immortalized megakaryocytes. Put plainly: shRNA knockdown in immortalized megakaryocytes during overexpression: number of CD41a-positive cells. Format: cell-based, human. The settings on record: during overexpression of BMI1, c-MYC and BCL-xL (FIG. 17). An excerpt:
Genes of shRUNX1 with GFP, shHMGA2 with GFP and SCRAMBLE with GFP were introduced into the immortalized megakaryocytes prepared in the above-mentioned section 1 using a viral vector. The cells introduced with the above genes (GFP-positive cells) were then sorted.

Data set [5] relates to immortalized megakaryocytes. Put plainly: Electron microscopy of shRNA-introduced megakaryocytes cultured with SR-1 and Y27632. Format: cell-based, human. The settings on record: DOX-free medium containing SR-1 and Y27632 (FIG. 21). As for the experimental part:
Cells introduced with genes shRUNX1, shHMGA2 and shSCRAMBLE obtained in section 9 above were cultured in DOX-free megakaryocyte medium containing SR-1 and Y27632 and observed with an electron microscope.

Where a name gives a salt, the structure may show the parent alone. Read-outs that look alike come from different tables or passages of the source.

Take `CC(C)n1cnc2c(NCCc3ccc(O)cc3)nc(-c3csc4ccccc34)nc21` [SR-1, 4-(2-(2-(benzo[b]thiophen-3-yl)-9-isopropyl-9H-purin-6-ylamino)ethyl)phenol]: the “duration of culturing after which highly functional platelets tend to be obtained” value in data set [1] (AhR antagonist added after terminating overexpression) amounted to 5 days. The platelet function result in data set [1] (compared with the absence of SR-1 (FIG. 1)) is reported as “higher”. For the same molecule, in data set [1] (static culturing 7 days, no feeder cells, addition of SR-1 (FIG. 1)), the “number of platelets bound by PAC-1 and anti-CD62p antibody” value was “confirmed to increase”.

Turning to `C[C@@H](N)c1ccc(C(=O)Nc2ccnc3[nH]ccc23)cc1` [Y39983], in data set [2], the “synergistic effect on number and function of platelets produced, ROCK inhibitor combined with SR-1” value is recorded as “prominent synergistic effect that exceeded that of Y27632”.

Consider `O=S(=O)(c1cccc2cnccc12)N1CCCNCC1` [fasudil hydrochloride], for which, in data set [2] (hydrochloride), the “synergistic effect on number and function of platelets produced, ROCK inhibitor combined with SR-1” value was “concentration-dependent synergistic effects comparable to that of Y27632”.

Consider `Cc1ccccc1N=Nc1ccc(NC(=O)c2ccnn2C)c(C)c1` [CH-223191, 2-methyl-2H-pyrazole-3-carboxylic acid (2-methyl-4-o-tolylazo-phenyl)-amide], for which the “synergistic effect on number of platelets produced, AhR antagonist combined with Y27632” value in data set [2] (in combination with Y27632 (FIG. 10)) is given as “prominent synergistic effects that exceeded that of SR-1”.

As for `C[C@H]1CNCCCN1S(=O)(=O)c1cccc2cncc(F)c12` [ripasudil], in data set [2], the “synergistic effect on number and function of platelets produced, ROCK inhibitor combined with SR-1” value is listed as “concentration-dependent synergistic effects comparable to that of Y27632”.

B1: shHMGA2: shRNA against HMGA2, target sequence SEQ ID NO: 5, shRNA sequence SEQ ID NO: 6, introduced with viral vector (nucleic acid)
chain: GATCCCCATGAGACGAAATGCTGATGTATTTCAAGAGAATACATCAGCATTTCGTCTCATTTTTTGGAAAA
As to B1, in data set [3] (after terminating overexpression (bottom of FIG. 19)), the “number of platelets produced per megakaryocyte” value is listed as “increase dramatically”. In data set [3] (after terminating overexpression (top of FIG. 19)), the megakaryocyte multinucleation result is listed as “considerable promotion”. Further, in data set [4], the “number of CD41a-positive cells” value is given as “decrease”. In addition, in data set [5], the “cell morphology by electron microscopy” value was “multinucleated and enlarged cells were observed”; the “development of demarcation membrane systems (DMS) in the cells” value is “formation of a DMS and secretory granules was observed”; the “formation of secretory granules” value is “formation of a DMS and secretory granules was observed”.

B2: shRUNX1: shRNA against RUNX1, target sequence SEQ ID NO: 3, shRNA sequence SEQ ID NO: 4 (nucleic acid)
chain: GATCCCCACTTTCCAGTCGACTCTCATTCAAGAGATGAGAGTCGACTGGAAAGTTTTTTGGAAAA
For B2, the “number of CD41a-positive cells” value in data set [4] is given as “increase”. In addition, in data set [5], the “cell morphology by electron microscopy” value is “numerous small nucleated cells”, the “development of demarcation membrane systems (DMS) in the cells” value is recorded as “lacking” and the “formation of secretory granules” value is “only be formed to a moderate degree”.

For the origin of these results see US10947504B2, “Method for producing highly functional platelets” (Kyoto University, priority 2015, dated 2021).
